Test [1] addresses T1, human mu-opioid receptor (hMor1) (human, UniProt P35372 6-360). In words: cell-based or functional assay.
In test [2] the target is T2, β2AR365N (human, UniProt P07550 2-365).
T2 construct: also called non-fused β2AR365N; human β2 adrenergic receptor Gly2 to Gly365, N187E
The experiment in a line: not described.

For test [3], the target named is T1, human mu-opioid receptor (hMor1). The experiment in a line: not described.

Three molecules from patent publication US20150376261A1 (VIB VZW, published 2015) can be followed below.

T1 sequence (P35372 6-360, tags or fused parts left off): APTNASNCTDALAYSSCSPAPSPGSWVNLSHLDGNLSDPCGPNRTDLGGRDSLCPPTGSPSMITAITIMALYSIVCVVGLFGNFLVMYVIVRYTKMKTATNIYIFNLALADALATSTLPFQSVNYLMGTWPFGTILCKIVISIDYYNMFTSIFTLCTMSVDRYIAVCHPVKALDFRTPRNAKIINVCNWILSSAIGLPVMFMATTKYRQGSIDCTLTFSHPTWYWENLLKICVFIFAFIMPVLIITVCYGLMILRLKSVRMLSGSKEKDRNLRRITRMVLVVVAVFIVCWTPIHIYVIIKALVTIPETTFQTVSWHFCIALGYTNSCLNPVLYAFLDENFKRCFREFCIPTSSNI

B1: Nb33 (VHH)
VHH: QVQLQESGGGLVRPGGSRRLSCVDSERTSYPMGWFRRAPGKEREFVASITWSGIDPTYADSVADRFTISRDVANNTLYLQMNSLKHEDTAVYYCAARAPVGQSSSPYDYDYWGQGTQVTVSS
As to B1, in test [1], the “IC50 ratio, Dmt1-Dalda: hMor1-34GS-Nb10 versus hMor1-34GS-Nb33 fusion ([3H]-diprenorphine competition, Sf9 membranes; Nb fused to the receptor)” value worked out at 36 ratio; the “IC50 ratio, KGOP01: hMor1-34GS-Nb10 versus hMor1-34GS-Nb33 fusion” value came out at 20 ratio; the “IC50 ratio, naloxone: hMor1-34GS-Nb10 versus hMor1-34GS-Nb33 fusion” value amounted to 2 ratio.

B2: Nb69 (VHH)
VHH: QVQLQESGGGLVQAGGSLRLSCTASGLTLSNYAMGWFRQAPGKEREFVAADTWNGNTYHQDSVKGRFTISRDNAKNTVYLQMNYLKPEDTAVYYCAARGSRRSAYYSSSDYTYRGQGTQVTVSS
notes: Described as specific for the rat muscarinic receptor M3; Used as the mock fusion partner and as an exogenously added control; also called CA5669; mock Single-domain antibody
On to B2, for which, in test [2], the binding result is “no binding”.

B3: Nb10 (VHH)
VHH: QVQLQESGGGLVQPGGSLRLSCAASGSFRSIVSMAWYRQAPGKQRELVASSNSGGSTNYADSVKGRFTISRDNAKNTVYLQMNSLKPEDTAVYWCNVQNRLPGFDAFSGRSIAETYWGQGTQVTVSS
notes: also called CA4910; irrelevant Single-domain antibody
Consider B3, for which the binding result in test [3] was “no binding”.
